Where two headings read alike, the source gives them in different places. One block for each binder: values may come before it.
B2: recombinant mouse mFLT3 protein (receptor, UniProt Q00342 28-544, looked up)
chain: NQDLPVIKCVLISHENNGSSAGKPSSYRMVRGSPEDLQCTPRRQSEGTVYEAATVEVAESGSITLQVQLATPGDLSCLWVFKHSSLGCQPHFDLQNRGIVSMAILNVTETQAGEYLLHIQSEAANYTVLFTVNVRDTQLYVLRRPYFRKMENQDALLCISEGVPEPTVEWVLCSSHRESCKEEGPAVVRKEEKVLHELFGTDIRCCARNALGRESTKLFTIDLNQAPQSTLPQLFLKVGEPLWIRCKAIHVNHGFGLTWELEDKALEEGSYFEMSTYSTNRTMIRILLAFVSSVGRNDTGYYTCSSSKHPSQSALVTILEKGFINATSSQEEYEIDPYEKFCFSVRFKAYPRIRCTWIFSQASFPCEQRGLEDGYSISKFCDHKNKPGEYIFYAENDDAQFTKMFTLNIRKKPQVLANASASQASCSSDGYPLPSWTWKKCSDKSPNCTEEIPEGVWNKKANRKVFGQWVSSSTLNMSEAGKGLLVKCCAYNSMGTSCETIFLNSPGPFPFIQDNIS
B3: recombinant mouse mCD40 protein (receptor, UniProt P27512 20-193, looked up)
chain: LGQCVTCSDKQYLHDGQCCDLCQPGSRLTSHCTALEKTQCHPCDSGEFSAQWNREIRCHQHRHCEPNQGLRVKKEGTAESDTVCTCKEGQHCTSKDCEACAQHTPCIPGFGVMEMATETTDTVCHPCPVGFFSNQSSLFEKCYPWTSCEDKNLEVLQKGTSQTNVICGLKSRMR
B4: mFLT3L-Fc-CD40L chimeric protein (Fc fusion, murine;mouse (printed as mFc), UniProt P49772 27-189, looked up)
chain: GTPDCYFSHSPISSNFKVKFRELTDHLLKDYPVTVAVNLQDEKHCKALWSLFLAQRWIEQLKTVAGSKMQTLLEDVNTEIHFVTSCTFQPLPECLRFVQTNISHLLKDTCTQLLALKPCIGKACQNFSRCLEVQCQPDSSTLLPPRSPIALEATELPEPRPRQVPRDCGCKPCICTVPEVSSVFIFPPKPKDVLTITLTPKVTCVVVDISKDDPEVQFSWFVDDVEVHTAQTQPREEQFNSTFRSVSELPIMHQDWLNGKEFKCRVNSAAFPAPIEKTISKTKGRPKAPQVYTIPPPKEQMAKDKVSLTCMITDFFPEDITVEWQWNGQPAENYKNTQPIMNTNGSYFVYSKLNVQKSNWEAGNTFTCSVLHEGLHNHHTEKSLSHSPGKHRRLDKVEEEVNLHEDFVFIKKLKRCNKGEGSLSLLNCEEMRRQFEDLVKDITLNKEEKKENSFEMQRGDEDPQIAAHVVSEANSNAASVLQWAKKGYYTMKSNLVMLENGKQLTVKREGLYYVYTQVTFCSNREPSSQRPFIVGLWLKPSSGSERILLKAANTHSSSQLCEQQSVHLGGVFELQAGASVFVNVTEASQVIHRVGFSSFGLLKL
notes: extracellular domain;domain: hinge-CH2-CH3 Fc domain; Expressed in 293 cells, purified on protein A; multimer when not reduced; also called murine FLT3L-Fc-CD40L; mFLT3-Fc-CD40L

Tests used:
[1] = target: B2; assay: ELISA: plate-bound mFlt3 (10ug/ml), detection goat anti-mFlt3L (1:1000) and anti-goat IgG (10,000)
Excerpt: (§1) Recombinant mFLT3L protein was used to generate a standard curve. […] A mouse whole IgG was used to generate a standard curve. […] Recombinant mCD40L protein was used to generate a standard curve.

[2] = target: B4; assay: Octet biolayer interferometry, loading mFLT3-his, analyte Conc. 142.9 nM, Full R2 0.9654
Excerpt: (§2) Octet was used to determine on-/off-rates and binding affinities to the target receptors.

[3] = target: B4; assay: Octet biolayer interferometry, loading mCD40-his, analyte Conc. 142.9 nM, Full R2 0.995
Excerpt: as §2

[4] = target: B3; assay: Dual ELISA: capture anti-FLT3L (R&D AF427), detection with mCD40-His (Acro), tertiary anti-His/HRP (Abcam)
Procedure: (§3) Capture was performed with an anti-FLT3L antibody, followed by detection of the co-stimulatory domain with a his-tagged recombinant protein, and visualized using an anti-his/HRP antibody.

anti-mIgG [5] = target: T1, anti-mIgG; assay: ELISA: plate-bound anti-mIgG (10ug/ml), detection anti-mIgG-HRP (1:1000)
T1 construct: capture antibody of the mFc ELISA; also called Capture Ab: anti-mIgG(10ug/ml)
Excerpt: (§4) Recombinant mFLT3L protein was used to generate a standard curve. […] A mouse whole IgG was used to generate a standard curve. […] Recombinant mOX40L protein was used to generate a standard curve.

anti-mIgG [6] = target: T1, anti-mIgG; assay: as above; remark: listed apart in the source
Excerpt: Recombinant mFLT3L protein was used to generate a standard curve. […] A mouse whole IgG was used to generate a standard curve. […] Recombinant m4-1BBL protein was used to generate a standard curve.
as §4

[7] = target: T2, recombinant mouse mOX40 protein (mouse, UniProt P47741 20-211, limits assumed); assay: Dual ELISA: capture anti-FLT3L (R&D AF427), detection with mOX40-His (Acro), tertiary anti-His/HRP (Abcam)
T2 sequence (looked up): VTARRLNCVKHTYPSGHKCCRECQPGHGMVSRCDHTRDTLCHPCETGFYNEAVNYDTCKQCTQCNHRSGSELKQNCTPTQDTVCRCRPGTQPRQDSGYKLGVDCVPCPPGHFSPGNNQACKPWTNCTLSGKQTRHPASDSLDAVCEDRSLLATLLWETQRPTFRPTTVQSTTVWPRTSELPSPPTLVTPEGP
Procedure: as §3

[8] = target: B3; assay: ELISA: plate-bound mCD40 (5ug/ml), detection anti-mCD40L (1:1000) and anti-goat IgG (1:10,000)
Excerpt: as §1

anti-mIgG [9] = target: T1, anti-mIgG; assay: ELISA: plate-bound anti-mIgG (10ug/ml), detection anti-mIgG-HRP (1:1000); remark: listed apart in the source
Excerpt: Recombinant mFLT3L protein was used to generate a standard curve. […] A mouse whole IgG was used to generate a standard curve. […] Recombinant mGITRL protein was used to generate a standard curve.

binding result [1]: binds
B1: Standard mFlt3L (ligand)
chain: GTPDCYFSHSPISSNFKVKFRELTDHLLKDYPVTVAVNLQDEKHCKALWSLFLAQRWIEQLKTVAGSKMQTLLEDVNTEIHFVTSCTFQPLPECLRFVQTNISHLLKDTCTQLLALKPCIGKACQNFSRCLEVQCQPDSSTLLPPRSPIALEATELPEPRPRQ
notes: also called recombinant mFLT3L protein

Binder: B2
Kd [2]: 15.2 nM | koff [2]: 0.00312 s⁻¹ | kon [2]: 205000 M⁻¹ s⁻¹

Binder: B3
Kd [3]: 14.2 nM | koff [3]: 0.000858 s⁻¹ | kon [3]: 61800 M⁻¹ s⁻¹

Binder: B4
EC50 (read off the curve) [4]: ~1 nM

EC50 (read off the curve) (anti-mIgG [5]): ~20 nM | EC50 (read off the curve) (anti-mIgG [6]): ~20 nM | EC50 (read off the curve) [7]: ~1 nM
B5: mFLT3L-Fc-OX40L chimeric protein (Fc fusion, murine;mouse (printed as mFc), UniProt P49772 27-189, looked up)
chain: GTPDCYFSHSPISSNFKVKFRELTDHLLKDYPVTVAVNLQDEKHCKALWSLFLAQRWIEQLKTVAGSKMQTLLEDVNTEIHFVTSCTFQPLPECLRFVQTNISHLLKDTCTQLLALKPCIGKACQNFSRCLEVQCQPDSSTLLPPRSPIALEATELPEPRPRQVPRDCGCKPCICTVPEVSSVFIFPPKPKDVLTITLTPKVTCVVVDISKDDPEVQFSWFVDDVEVHTAQTQPREEQFNSTFRSVSELPIMHQDWLNGKEFKCRVNSAAFPAPIEKTISKTKGRPKAPQVYTIPPPKEQMAKDKVSLTCMITDFFPEDITVEWQWNGQPAENYKNTQPIMNTNGSYFVYSKLNVQKSNWEAGNTFTCSVLHEGLHNHHTEKSLSHSPGKSSSPAKDPPIQRLRGAVTRCEDGQLFISSYKNEYQTMEVQNNSVVIKCDGLYIIYLKGSFFQEVKIDLHFREDHNPISIPMLNDGRRIVFTVVASLAFKDKVYLTVNAPDTLCEHLQINDGELIVVQLTPGYCAPEGSYHSTVNQVPL
notes: extracellular domain;domain: hinge-CH2-CH3 Fc domain; Expressed in 293 cells, purified on protein A; multimer when not reduced; also called murine FLT3L-Fc-OX40L

EC50 (read off the curve) [8]: ~10 nM
B6: Standard(mCD40L) (ligand, mouse, UniProt P27548 112-260, looked up)
ligand chain: MQRGDEDPQIAAHVVSEANSNAASVLQWAKKGYYTMKSNLVMLENGKQLTVKREGLYYVYTQVTFCSNREPSSQRPFIVGLWLKPSSGSERILLKAANTHSSSQLCEQQSVHLGGVFELQAGASVFVNVTEASQVIHRVGFSSFGLLKL
notes: recombinant soluble protein; also called recombinant mCD40L protein

EC50 (read off the curve) (anti-mIgG [9]): ~6 nM | EC50 (read off the curve) (anti-mIgG [6]): ~6 nM
B7: mFLT3L-Fc-GITRL chimeric protein (Fc fusion, murine;mouse (printed as mFc), UniProt P49772 27-189, looked up)
chain: GTPDCYFSHSPISSNFKVKFRELTDHLLKDYPVTVAVNLQDEKHCKALWSLFLAQRWIEQLKTVAGSKMQTLLEDVNTEIHFVTSCTFQPLPECLRFVQTNISHLLKDTCTQLLALKPCIGKACQNFSRCLEVQCQPDSSTLLPPRSPIALEATELPEPRPRQVPRDCGCKPCICTVPEVSSVFIFPPKPKDVLTITLTPKVTCVVVDISKDDPEVQFSWFVDDVEVHTAQTQPREEQFNSTFRSVSELPIMHQDWLNGKEFKCRVNSAAFPAPIEKTISKTKGRPKAPQVYTIPPPKEQMAKDKVSLTCMITDFFPEDITVEWQWNGQPAENYKNTQPIMNTNGSYFVYSKLNVQKSNWEAGNTFTCSVLHEGLHNHHTEKSLSHSPGKTSLKPTAIESCMVKFELSSSKWHMTSPKPHCVNTTSDGKLKILQSGTYLIYGQVIPVDKKYIKDNAPFVVQIYKKNDVLQTLMNDFQILPIGGVYELHAGDNIYLKFNSKDHIQKTNTYWGIILMPDLPFIS
notes: extracellular domain;domain: hinge-CH2-CH3 Fc domain; Expressed in 293 cells, purified on protein A; multimer when not reduced; also called murine FLT3L-Fc-GITRL; mFLT3-Fc-GITRL

— patent US20240122983A1 (SHATTUCK LABS, published 2024)
